According to patent publication US20240325557A1, “TREATMENT OF CANCER” (INNATE PHARMA, priority 2020, published 2024):

Legend:
[1] = target: T1, wild-type human Nectin-4 (Homo sapiens, UniProt Q96NY8); experiment: Flow cytometry binding to wild-type Nectin-4 expressing CHO cells
T1 construct: expressed in transfected cells; host or cells: CHO (huNectin4 Cl.3C8)
T1 sequence (Q96NY8 32-510): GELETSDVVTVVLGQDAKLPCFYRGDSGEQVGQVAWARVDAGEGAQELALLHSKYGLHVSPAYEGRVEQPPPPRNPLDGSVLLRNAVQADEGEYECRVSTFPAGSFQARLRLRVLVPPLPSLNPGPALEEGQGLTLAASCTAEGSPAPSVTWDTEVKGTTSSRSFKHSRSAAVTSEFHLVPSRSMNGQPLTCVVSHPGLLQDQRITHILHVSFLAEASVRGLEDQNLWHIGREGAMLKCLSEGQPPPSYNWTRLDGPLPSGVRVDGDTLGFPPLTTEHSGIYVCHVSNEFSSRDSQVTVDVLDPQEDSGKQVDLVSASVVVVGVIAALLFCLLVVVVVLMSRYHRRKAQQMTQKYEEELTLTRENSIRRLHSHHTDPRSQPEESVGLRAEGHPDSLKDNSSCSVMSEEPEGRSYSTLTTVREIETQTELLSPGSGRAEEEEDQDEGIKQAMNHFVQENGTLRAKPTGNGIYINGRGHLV
Method: plates of hybridoma supernatants were tested for binding on the wild-type human Nectin-4 expressing CHO cell line by flow cytometry. Briefly, Nectin-4 expressing cells were used at 0.2×10^6 cells by well in a buffer of PBS, BSA 0.5%, EDTA 5 mM. The first antibody was incubated with cells for 1h at +5±3° C. in 50 μL of supernatant. […] Acquisition HTFC flow cytometer (Intellicyt), with data analysis on ForeCyt™ software.
The characterization of the binding of the antibodies on Nectin-4 domains was performed by flow cytometry using cells made to express the wild-type human Nectin-4 protein and cells made to express a modified Nectin-4 having the Ig-like C2 type 1 and the Ig-like C2 type 2 domains and lacking the Ig-like V domain (the C1C2 construct). The latter protein additionally bears a V5 tag for flow cytometry cell sorting, and cells were used as Nectin4-C1C2-V5 sorted cells.
Wild-type Nectin-4 (the CI.3C8 cell line), a C2 construct (containing the Ig-like C2 type 2 domain and lacking both the V and the C1 domains) and the C1C2 construct allow the determination of whether test antibodies bind to the V or different C domains. Briefly, nucleic acid sequences encoding different human Nectin-4 domains were amplified by PCR. The PCR products were inserted into an expression vector at appropriate restriction sites. […] The amino acid sequences of the resulting different human Nectin-4 domain fragment-containing proteins are shown below (V5 tag underlined). The vectors were then transfected into the CHO cell line to obtain stable clones expressing the different Nectin-4 domain proteins at the cell surface.

[2] = target: T2, Nectin-4 Mutant 1 (S58P/G59D/Q61A/N106D/P107A) (Homo sapiens, UniProt Q96NY8, G59D/N106D/P107A/Q61A/S58P); experiment: Binding to cell surface expressed Nectin-4 point mutant; conditions: HEK-293T
T2 construct: expressed in transfected cells; host or cells: HEK293T
T2 sequence (Q96NY8 32-510 S58P/G59D/Q61A/N106D/P107A): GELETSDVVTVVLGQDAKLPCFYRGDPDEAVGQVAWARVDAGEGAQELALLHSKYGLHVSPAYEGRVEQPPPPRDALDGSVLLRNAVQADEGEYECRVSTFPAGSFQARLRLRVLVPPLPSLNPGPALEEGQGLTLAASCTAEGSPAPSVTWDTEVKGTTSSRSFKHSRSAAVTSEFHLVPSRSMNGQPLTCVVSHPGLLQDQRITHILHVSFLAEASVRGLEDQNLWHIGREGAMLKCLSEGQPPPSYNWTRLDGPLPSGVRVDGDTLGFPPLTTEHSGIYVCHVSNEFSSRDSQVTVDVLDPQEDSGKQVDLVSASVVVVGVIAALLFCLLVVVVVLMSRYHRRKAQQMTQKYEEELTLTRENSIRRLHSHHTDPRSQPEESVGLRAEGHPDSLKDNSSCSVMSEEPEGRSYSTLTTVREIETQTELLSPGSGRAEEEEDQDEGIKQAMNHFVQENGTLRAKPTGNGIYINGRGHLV
Description: Combined with the published structures of the Nectin-4 domains, Nectin-4 mutations at surface exposed amino acids residues were designed. Nectin-4 domain structure was modelled based on Protein Data Bank reference: 4FRW (domains V et C1). Human Nectin-4 used was NCBI Reference Sequence: NP_112178.2, mouse Nectin-4 used was NCBI Reference Sequence: AAL79833.1, cynomolgus Nectin-4 used was NCBI Reference Sequence: XP_005541277.1, rat Nectin-4 used was NCBI Reference Sequence: NP_001102546.1. The cells expressing the Nectin-4 mutants are then be used for testing anti-Nectin-4 antibodies for loss of binding to different Nectin-4 mutants to identify antibodies that bind to the same site on Nectin-4. […] FIGS. 12A and 12B show a molecular model of the human Nectin-4 protein, indicating the position of substituted residues in mutants 7 (12A) and in mutants 7bis (12B); these mutants are in the C1 domain identify two sites at the junction of domain C1 and V domain that are on opposing faces of the Nectin-4 protein.
Nectin-4 mutants were generated by PCR. The sequences amplified were run on agarose gel and purified using the Macherey Nagel PCR Clean-Up Gel Extraction kit. The purified PCR products generated for each mutant were then ligated into an expression vector, with the ClonTech InFusion system. The vectors containing the mutated sequences were prepared as Miniprep and sequenced. After sequencing, the vectors containing the mutated sequences were prepared as Midiprep using the Promega PureYield™ Plasmid Midiprep System. HEK293T cells were grown in DMEM medium (Invitrogen), transfected with vectors using Invitrogen's Lipofectamine 2000 and incubated at 37° C. in a CO2 incubator for 48 hours prior to testing for transgene expression. The targeted amino acid mutations are shown in Table 2 below, listing the residue present in wild-type Nectin-4/position of residue/residue present in mutant Nectin-4, with position reference being to the Nectin-4 protein with leader peptide shown in SEQ ID NO: 1.

| Molecule | binding to whole (wild-type) human Nectin-4 protein [1] | association with Nectin-4 Mutant 1 [2] |
| --- | --- | --- |
| N41 (antibody, V domains shown) VH: QVQLKQSGPGLVQPSQSLSITCTVSGFSLTNYGVHWVRQSPGKGLEWLGVIWSGGSTDYNAAFISRLSISKDTSKSQVFFKMNSLQADDTAIYYCARELIHAMDNWGQGTSVTVSS VL: DIQMTQSPASLSVSVGETVTITCRASENIYSNLAWYQQKQGNSPQLLVFAATNLADGVPSRFSGSGSGTQYSLKINSLQSEDFGTYYCQHFWGTPTFGGGTKLEIK | bound to the whole Nectin-4 protein | − |
| 5E7 (antibody, V domains shown) VH: QVQLQQPGAELVKPGASVKLSCKASGYIFTSYWMHWVKQRPGQGLEWIGEIDPSDSYTNYNQKFKGKATLTLDKSSSTTYMQLSSLTSEDSAVYYCVRGYGNYGDYWGQGTTLTVSS VL: DVVMTQAAFSNPVTLGTSASISCRSSKSLLHSNGITYLYWYLQKPGQSPQLLIYQMSNLASGVPDRFSSSGSGTDFTLRISRVEAEDVGVYYCAQNLELPWTFGGGTKLEIK | lower plateau | + |
| 10B12: anti-Nectin-4 antibody, VH SEQ ID NO: 24, VL SEQ ID NO: 25, binds junction of domain C1 and V (antibody, listed as Mus musculus, V domains shown) VH: QVQLQQPGAELVKPGASVKLSCKASGYTFTSYWMHWVKQRPGQGLEWIGEIDPSDSYTNYNQKFKGKATLTVDKSSSTAYMQLSSLTSEDSAVYYCVRGYGNYGDYWGQGTTLTVSS VL: DIVMTQAAFSNPVTLGTSASISCRSSKSLLHSNGITYLYWYLQKPGQSPQLLIYQMSNLASGVPDRFSSSGSGTDFTLRISRVEAEDVGVYYCAQNLELPWTFGGGTKLEIK | lower plateau | + |
